Measured values reported in the supplement of paper PMC10724198.
± gives the standard deviation of the averaged measurements.

Legend:
Saccharomyces cerevisiae [1] = assay: protein stability index of tFT-peptide fusion (C-terminal peptide) (PSI (0-1 scale)); higher = more stable (slower turnover); conditions: genetic background: wild type; temperature: 30 C
Saccharomyces cerevisiae [2] = assay: as above
Method: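 MPS profiling in S. cerevisiae of the tFT-X12 degron library: putative degron peptides plus stable controls, 12 aa, fused to the C-terminus of a sfGFP-mCherry timer. Cells are FACS-sorted into 8 mCherry/sfGFP bins and deep-sequenced. PSI runs from 0 (unstable) to 1 (stable). Backgrounds are wild type, das1Δ and doa10Δ at 30 °C, and wild type, das1Δ, cdc34-1 and cdc53-1 at 37 °C; 2-3 technical replicates each.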

[3] = genetic background: cdc34-1, temperature: 37 C
[4] = genetic background: cdc53-1, temperature: 37 C
[5] = genetic background: das1 deletion, temperature: 30 C
[6] = genetic background: das1 deletion, temperature: 37 C
[7] = genetic background: doa10 deletion, temperature: 30 C
[8] = genetic background: wild type, temperature: 30 C
[9] = genetic background: wild type, temperature: 37 C
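Also: PSI is a weighted mean of sequencing reads over stability bins, variants kept only with over 10 reads, mCherry proximal and sfGFP distal, peptide attached via GGGS linker.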

Sequence | protein stability index (Saccharomyces cerevisiae [1]) | protein stability index (Saccharomyces cerevisiae [2]; [3]) | protein stability index (Saccharomyces cerevisiae [2]; [4]) | protein stability index (Saccharomyces cerevisiae [2]; [5]) | protein stability index (Saccharomyces cerevisiae [2]; [6]) | protein stability index (Saccharomyces cerevisiae [2]; [7]) | protein stability index (Saccharomyces cerevisiae [2]; [8]) | protein stability index (Saccharomyces cerevisiae [2]; [9])
VVISRVLAIRLL | 0.237 ± 0.0063 | 0.5452 ± 0.00094 | 0.6095 ± 0.0003 | 0.5 ± 0.027 | 0.6173 ± 0.002 | 0.1324 ± 0.0013 | 0.137 ± 0.028 | 0.228 ± 0.042
PPPPLFLIVLHL | 0.434 ± 0.033 | 0.5196 ± 0.0015 | 0.621 ± 0.031 | 0.465 ± 0.03 | 0.642 ± 0.012 | 0.4109 ± 0.0026 | 0.401 ± 0.026 | 0.593 ± 0.023
GIPVRRLLFLVA | 0.292 ± 0.051 | 0.419 ± 0.0098 | 0.478 ± 0.013 | 0.335 ± 0.033 | 0.5019 ± 0.0023 | 0.145 ± 0.0062 | 0.17 ± 0.024 | 0.311 ± 0.021
LLLFSFAALANF | 0.347 ± 0.0064 | 0.539 ± 0.059 | 0.545 ± 0.017 | 0.398 ± 0.022 | 0.5592 ± 0.0013 | 0.245 ± 0.0066 | 0.283 ± 0.018 | 0.466 ± 0.02
FCFFSMGFVLAL | 0.453 ± 0.072 | 0.3489 ± 0.00089 | 0.365 ± 0.0065 | 0.334 ± 0.0061 | 0.45 ± 0.017 | 0.289 ± 0.0053 | 0.314 ± 0.017 | 0.422 ± 0.026
LFGFLCVVMCCG | 0.434 ± 0.028 | 0.533 ± 0.014 | 0.521 ± 0.0067 | 0.44 ± 0.02 | 0.511 ± 0.03 | 0.412 ± 0.023 | 0.4422 ± 0.00067 | 0.485 ± 0.034
SLRSLYLLARLS | 0.194 ± 0.021 | 0.518 ± 0.061 | 0.689 ± 0.047 | 0.636 ± 0.033 | 0.732 ± 0.012 | 0.076 ± 0.017 | 0.0777 ± 0.024 | 0.0971 ± 0.015
VVGVVVCWGRGW | 0.496 ± 0.046 | 0.603 ± 0.015 | 0.666 ± 0.029 | 0.463 ± 0.024 | 0.653 ± 0.0096 | 0.448 ± 0.019 | 0.469 ± 0.015 | 0.6212 ± 0.0058
SSAPTIVIWRFS | 0.495 ± 0.027 | 0.672 ± 0.041 | 0.724 ± 0.026 | 0.592 ± 0.031 | 0.7 ± 0.0079 | 0.401 ± 0.024 | 0.428 ± 0.011 | 0.6081 ± 0.0015
SRLVIGRWSVLV | 0.318 ± 0.019 | 0.567 ± 0.045 | 0.617 ± 0.016 | 0.492 ± 0.03 | 0.6346 ± 0.0035 | 0.177 ± 0.013 | 0.217 ± 0.034 | 0.442 ± 0.0031
FCVLLFFFPLII | 0.363 ± 0.024 | 0.272 ± 0.012 | 0.293 ± 0.04 | 0.271 ± 0.029 | 0.402 ± 0.0046 | 0.376 ± 0.037 | 0.261 ± 0.015 | 0.374 ± 0.012
ISVSVVFFVLRF | 0.3965 ± 0.0021 | 0.27578 ± 0.00014 | 0.369 ± 0.031 | 0.265 ± 0.041 | 0.429 ± 0.015 | 0.294 ± 0.017 | 0.279 ± 0.019 | 0.411 ± 0.011
LFWPPCYLFFCL | 0.389 ± 0.031 | 0.446 ± 0.034 | 0.508 ± 0.052 | 0.473 ± 0.039 | 0.677 ± 0.045 | 0.393 ± 0.03 | 0.324 ± 0.027 | 0.437 ± 0.024
LFVFVISSSSFP | 0.395 ± 0.04 | 0.442 ± 0.0068 | 0.539 ± 0.035 | 0.321 ± 0.025 | 0.553 ± 0.0059 | 0.291 ± 0.022 | 0.306 ± 0.025 | 0.503 ± 0.015
RSSGHLLDGRAF | 0.539 ± 0.096 | 0.697 ± 0.03 | 0.739 ± 0.011 | 0.64 ± 0.02 | 0.752 ± 0.011 | 0.631 ± 0.029 | 0.654 ± 0.021 | 0.7353 ± 0.0026
WCCVFVARFFWL | 0.413 ± 0.04 | 0.416 ± 0.013 | 0.504 ± 0.013 | 0.348 ± 0.031 | 0.499 ± 0.014 | 0.334 ± 0.0061 | 0.342 ± 0.011 | 0.44 ± 0.008
VLGARWHWIYIA | 0.111 ± 0.024 | 0.281 ± 0.071 | 0.526 ± 0.0082 | 0.501 ± 0.014 | 0.6636 ± 0.0012 | 0.0782 ± 0.011 | 0.078 ± 0.023 | 0.06742 ± 0.00037
LRFFLPFLLSLP | 0.2418 ± 0.0021 | 0.519 ± 0.043 | 0.596 ± 0.015 | 0.55 ± 0.036 | 0.6588 ± 0.0031 | 0.158 ± 0.0035 | 0.164 ± 0.022 | 0.292 ± 0.0041
FGCLFILRCSFL | 0.422 ± 0.0099 | 0.429 ± 0.047 | 0.487 ± 0.00067 | 0.349 ± 0.035 | 0.5384 ± 0.00075 | 0.29 ± 0.0031 | 0.304 ± 0.026 | 0.4966 ± 0.0043
CSRTRLHCFTAS | 0.712 ± 0.011 | 0.696 ± 0.062 | 0.7452 ± 0.0029 | 0.647 ± 0.028 | 0.74183 ± 0.00066 | 0.5808 ± 0.0019 | 0.585 ± 0.027 | 0.6796 ± 0.005
WFWVAVGVVGGG | 0.449 ± 0.014 | 0.496 ± 0.029 | 0.534 ± 0.022 | 0.356 ± 0.032 | 0.5243 ± 0.0031 | 0.326 ± 0.016 | 0.358 ± 0.015 | 0.5 ± 0.0082
CFRRPLLRVVLT | 0.506 ± 0.018 | 0.502 ± 0.014 | 0.5681 ± 0.0051 | 0.451 ± 0.037 | 0.59 ± 0.025 | 0.4289 ± 0.0035 | 0.435 ± 0.017 | 0.569 ± 0.0089
CLWLRCIVSILP | 0.239 ± 0.034 | 0.121 ± 0.0082 | 0.248 ± 0.0081 | 0.184 ± 0.028 | 0.321 ± 0.01 | 0.16 ± 0.0074 | 0.168 ± 0.025 | 0.30428 ± 0.00014
ILHRRCGLLLQI | 0.343 ± 0.016 | 0.47 ± 0.04 | 0.506 ± 0.0066 | 0.447 ± 0.015 | 0.538 ± 0.017 | 0.273 ± 0.0094 | 0.278 ± 0.025 | 0.4161 ± 0.0032
SLGHIGFWRFAG | 0.191 ± 0.011 | 0.554 ± 0.0087 | 0.709 ± 0.0081 | 0.66 ± 0.009 | 0.77 ± 0.011 | 0.103 ± 0.018 | 0.108 ± 0.013 | 0.169 ± 0.0063
GLLSLSGLRWFC | 0.276 ± 0.11 | 0.672 ± 0.051 | 0.74727 ± 0.00044 | 0.659 ± 0.021 | 0.763 ± 0.022 | 0.163 ± 0.021 | 0.19 ± 0.035 | 0.462 ± 0.012
WHLLRFETQMFC | 0.172 ± 0.049 | 0.571 ± 0.018 | 0.7091 ± 0.0027 | 0.611 ± 0.037 | 0.712 ± 0.022 | 0.151 ± 0.028 | 0.164 ± 0.016 | 0.337 ± 0.0026
WYLLCESCLLCL | 0.494 ± 0.0075 | 0.534 ± 0.021 | 0.536 ± 0.0079 | 0.406 ± 0.025 | 0.562 ± 0.011 | 0.39 ± 0.013 | 0.408 ± 0.025 | 0.558 ± 0.0046
VGVVLWWVVLMV | 0.241 ± 0.017 | 0.118 ± 0.014 | 0.181 ± 0.0027 | 0.184 ± 0.024 | 0.28 ± 0.0034 | 0.154 ± 0.012 | 0.16 ± 0.029 | 0.251 ± 0.0034
PPPLLVRPWFLV | 0.214 ± 0.05 | 0.618 ± 0.054 | 0.725 ± 0.013 | 0.612 ± 0.029 | 0.741 ± 0.024 | 0.147 ± 0.018 | 0.157 ± 0.019 | 0.269 ± 0.02
